{
  "source": "paper PMC12384393",
  "key": {"[1]": {"target": "equine LH/CGR-N174Q (equine)"}, "[2]": {"target": "equine LH/CGR-N195Q (equine)"}, "[3]": {"target": "equine LH/CGR-N291Q (equine)"}, "[4]": {"target": "equine LH/CGR-N299Q (equine)"}, "[5]": {"target": "equine LH/CGR-N313Q (equine)"}, "[6]": {"target": "equine LH/CGR-N50Q (equine)"}, "[7]": {"target": "equine LH/CGR-N99Q (equine)"}, "[8]": {"target": "equine lutropin hormone/choriogonadotropin receptor, wild type (equine LH/CGR-WT) (equine)"}, "[9]": {"target": "equine LH/CGR-N174Q (equine)", "remark": "listed apart in the source"}, "[10]": {"target": "equine LH/CGR-N195Q (equine)", "remark": "listed apart in the source"}, "[11]": {"target": "equine LH/CGR-N291Q (equine)", "remark": "listed apart in the source"}, "[12]": {"target": "equine LH/CGR-N299Q (equine)", "remark": "listed apart in the source"}, "[13]": {"target": "equine LH/CGR-N313Q (equine)", "remark": "listed apart in the source"}, "[14]": {"target": "equine LH/CGR-N50Q (equine)", "remark": "listed apart in the source"}, "[15]": {"target": "equine LH/CGR-N99Q (equine)", "remark": "listed apart in the source"}, "[16]": {"target": "equine lutropin hormone/choriogonadotropin receptor, wild type (equine LH/CGR-WT) (equine)", "remark": "listed apart in the source"}},
  "data": [
    {"substance": "recombinant equine chorionic gonadotropin (rec-eCG) (from UniProt P08751 21-169; P01220 25-120) (ligand)", "values": [
      {"measurement": "EC50 of the cAMP response (HTRF) of transfected CHO-K1 cells stimulated with rec-eCG for 30 min", "setting": "[1]", "value": 0.179, "unit": "µg/mL"},
      {"measurement": "EC50 of the cAMP response (HTRF) of transfected CHO-K1 cells stimulated with rec-eCG for 30 min", "setting": "[2]", "value": 0.136, "unit": "µg/mL"},
      {"measurement": "EC50 of the cAMP response (HTRF) of transfected CHO-K1 cells stimulated with rec-eCG for 30 min", "setting": "[3]", "value": 0.0184, "unit": "µg/mL"},
      {"measurement": "EC50 of the cAMP response (HTRF) of transfected CHO-K1 cells stimulated with rec-eCG for 30 min", "setting": "[4]", "value": 0.0269, "unit": "µg/mL"},
      {"measurement": "EC50 of the cAMP response (HTRF) of transfected CHO-K1 cells stimulated with rec-eCG for 30 min", "setting": "[5]", "value": 0.0347, "unit": "µg/mL"},
      {"measurement": "EC50 of the cAMP response (HTRF) of transfected CHO-K1 cells stimulated with rec-eCG for 30 min", "setting": "[6]", "value": 0.0177, "unit": "µg/mL"},
      {"measurement": "EC50 of the cAMP response (HTRF) of transfected CHO-K1 cells stimulated with rec-eCG for 30 min", "setting": "[7]", "value": 0.0241, "unit": "µg/mL"},
      {"measurement": "EC50 of the cAMP response (HTRF) of transfected CHO-K1 cells stimulated with rec-eCG for 30 min", "setting": "[8]", "value": 0.0237, "unit": "µg/mL"},
      {"measurement": "t1/2 of the loss of cell surface receptor (anti-VSVG ELISA on cells) after rec-eCG treatment, 0-120 min", "setting": "[9]", "value": 3.3, "unit": "min"},
      {"measurement": "t1/2 of the loss of cell surface receptor (anti-VSVG ELISA on cells) after rec-eCG treatment, 0-120 min", "setting": "[10]", "value": 31.4, "unit": "min"},
      {"measurement": "t1/2 of the loss of cell surface receptor (anti-VSVG ELISA on cells) after rec-eCG treatment, 0-120 min", "setting": "[11]", "value": 14.3, "unit": "min"},
      {"measurement": "t1/2 of the loss of cell surface receptor (anti-VSVG ELISA on cells) after rec-eCG treatment, 0-120 min", "setting": "[12]", "value": 12.8, "unit": "min"},
      {"measurement": "t1/2 of the loss of cell surface receptor (anti-VSVG ELISA on cells) after rec-eCG treatment, 0-120 min", "setting": "[13]", "value": 13.3, "unit": "min"},
      {"measurement": "t1/2 of the loss of cell surface receptor (anti-VSVG ELISA on cells) after rec-eCG treatment, 0-120 min", "setting": "[14]", "value": 5.6, "unit": "min"},
      {"measurement": "t1/2 of the loss of cell surface receptor (anti-VSVG ELISA on cells) after rec-eCG treatment, 0-120 min", "setting": "[15]", "value": 5.2, "unit": "min"},
      {"measurement": "t1/2 of the loss of cell surface receptor (anti-VSVG ELISA on cells) after rec-eCG treatment, 0-120 min", "setting": "[16]", "value": 5.6, "unit": "min"}
    ]}
  ]
}
